From paper PMC6488028

Molecular target: GenB1 (aminotransferase involved in C6'-amination, Micromonospora echinospora) (Micromonospora echinospora)
Test: crystal structure

stoichiometry N: 2
Substance: GenB1 (aminotransferase involved in C6'-amination, Micromonospora echinospora) (enzyme)
